Data reported in publication PMC2613223 (International journal of cancer. Journal international du …, 2008).

Target: DNA-dependent protein kinase catalytic subunit (human (endogenous in HCT-116), UniProt P78527 1-4128)
Test: cell-based or functional assay

Chain of DNA-dependent protein kinase catalytic subunit (P78527 whole entry): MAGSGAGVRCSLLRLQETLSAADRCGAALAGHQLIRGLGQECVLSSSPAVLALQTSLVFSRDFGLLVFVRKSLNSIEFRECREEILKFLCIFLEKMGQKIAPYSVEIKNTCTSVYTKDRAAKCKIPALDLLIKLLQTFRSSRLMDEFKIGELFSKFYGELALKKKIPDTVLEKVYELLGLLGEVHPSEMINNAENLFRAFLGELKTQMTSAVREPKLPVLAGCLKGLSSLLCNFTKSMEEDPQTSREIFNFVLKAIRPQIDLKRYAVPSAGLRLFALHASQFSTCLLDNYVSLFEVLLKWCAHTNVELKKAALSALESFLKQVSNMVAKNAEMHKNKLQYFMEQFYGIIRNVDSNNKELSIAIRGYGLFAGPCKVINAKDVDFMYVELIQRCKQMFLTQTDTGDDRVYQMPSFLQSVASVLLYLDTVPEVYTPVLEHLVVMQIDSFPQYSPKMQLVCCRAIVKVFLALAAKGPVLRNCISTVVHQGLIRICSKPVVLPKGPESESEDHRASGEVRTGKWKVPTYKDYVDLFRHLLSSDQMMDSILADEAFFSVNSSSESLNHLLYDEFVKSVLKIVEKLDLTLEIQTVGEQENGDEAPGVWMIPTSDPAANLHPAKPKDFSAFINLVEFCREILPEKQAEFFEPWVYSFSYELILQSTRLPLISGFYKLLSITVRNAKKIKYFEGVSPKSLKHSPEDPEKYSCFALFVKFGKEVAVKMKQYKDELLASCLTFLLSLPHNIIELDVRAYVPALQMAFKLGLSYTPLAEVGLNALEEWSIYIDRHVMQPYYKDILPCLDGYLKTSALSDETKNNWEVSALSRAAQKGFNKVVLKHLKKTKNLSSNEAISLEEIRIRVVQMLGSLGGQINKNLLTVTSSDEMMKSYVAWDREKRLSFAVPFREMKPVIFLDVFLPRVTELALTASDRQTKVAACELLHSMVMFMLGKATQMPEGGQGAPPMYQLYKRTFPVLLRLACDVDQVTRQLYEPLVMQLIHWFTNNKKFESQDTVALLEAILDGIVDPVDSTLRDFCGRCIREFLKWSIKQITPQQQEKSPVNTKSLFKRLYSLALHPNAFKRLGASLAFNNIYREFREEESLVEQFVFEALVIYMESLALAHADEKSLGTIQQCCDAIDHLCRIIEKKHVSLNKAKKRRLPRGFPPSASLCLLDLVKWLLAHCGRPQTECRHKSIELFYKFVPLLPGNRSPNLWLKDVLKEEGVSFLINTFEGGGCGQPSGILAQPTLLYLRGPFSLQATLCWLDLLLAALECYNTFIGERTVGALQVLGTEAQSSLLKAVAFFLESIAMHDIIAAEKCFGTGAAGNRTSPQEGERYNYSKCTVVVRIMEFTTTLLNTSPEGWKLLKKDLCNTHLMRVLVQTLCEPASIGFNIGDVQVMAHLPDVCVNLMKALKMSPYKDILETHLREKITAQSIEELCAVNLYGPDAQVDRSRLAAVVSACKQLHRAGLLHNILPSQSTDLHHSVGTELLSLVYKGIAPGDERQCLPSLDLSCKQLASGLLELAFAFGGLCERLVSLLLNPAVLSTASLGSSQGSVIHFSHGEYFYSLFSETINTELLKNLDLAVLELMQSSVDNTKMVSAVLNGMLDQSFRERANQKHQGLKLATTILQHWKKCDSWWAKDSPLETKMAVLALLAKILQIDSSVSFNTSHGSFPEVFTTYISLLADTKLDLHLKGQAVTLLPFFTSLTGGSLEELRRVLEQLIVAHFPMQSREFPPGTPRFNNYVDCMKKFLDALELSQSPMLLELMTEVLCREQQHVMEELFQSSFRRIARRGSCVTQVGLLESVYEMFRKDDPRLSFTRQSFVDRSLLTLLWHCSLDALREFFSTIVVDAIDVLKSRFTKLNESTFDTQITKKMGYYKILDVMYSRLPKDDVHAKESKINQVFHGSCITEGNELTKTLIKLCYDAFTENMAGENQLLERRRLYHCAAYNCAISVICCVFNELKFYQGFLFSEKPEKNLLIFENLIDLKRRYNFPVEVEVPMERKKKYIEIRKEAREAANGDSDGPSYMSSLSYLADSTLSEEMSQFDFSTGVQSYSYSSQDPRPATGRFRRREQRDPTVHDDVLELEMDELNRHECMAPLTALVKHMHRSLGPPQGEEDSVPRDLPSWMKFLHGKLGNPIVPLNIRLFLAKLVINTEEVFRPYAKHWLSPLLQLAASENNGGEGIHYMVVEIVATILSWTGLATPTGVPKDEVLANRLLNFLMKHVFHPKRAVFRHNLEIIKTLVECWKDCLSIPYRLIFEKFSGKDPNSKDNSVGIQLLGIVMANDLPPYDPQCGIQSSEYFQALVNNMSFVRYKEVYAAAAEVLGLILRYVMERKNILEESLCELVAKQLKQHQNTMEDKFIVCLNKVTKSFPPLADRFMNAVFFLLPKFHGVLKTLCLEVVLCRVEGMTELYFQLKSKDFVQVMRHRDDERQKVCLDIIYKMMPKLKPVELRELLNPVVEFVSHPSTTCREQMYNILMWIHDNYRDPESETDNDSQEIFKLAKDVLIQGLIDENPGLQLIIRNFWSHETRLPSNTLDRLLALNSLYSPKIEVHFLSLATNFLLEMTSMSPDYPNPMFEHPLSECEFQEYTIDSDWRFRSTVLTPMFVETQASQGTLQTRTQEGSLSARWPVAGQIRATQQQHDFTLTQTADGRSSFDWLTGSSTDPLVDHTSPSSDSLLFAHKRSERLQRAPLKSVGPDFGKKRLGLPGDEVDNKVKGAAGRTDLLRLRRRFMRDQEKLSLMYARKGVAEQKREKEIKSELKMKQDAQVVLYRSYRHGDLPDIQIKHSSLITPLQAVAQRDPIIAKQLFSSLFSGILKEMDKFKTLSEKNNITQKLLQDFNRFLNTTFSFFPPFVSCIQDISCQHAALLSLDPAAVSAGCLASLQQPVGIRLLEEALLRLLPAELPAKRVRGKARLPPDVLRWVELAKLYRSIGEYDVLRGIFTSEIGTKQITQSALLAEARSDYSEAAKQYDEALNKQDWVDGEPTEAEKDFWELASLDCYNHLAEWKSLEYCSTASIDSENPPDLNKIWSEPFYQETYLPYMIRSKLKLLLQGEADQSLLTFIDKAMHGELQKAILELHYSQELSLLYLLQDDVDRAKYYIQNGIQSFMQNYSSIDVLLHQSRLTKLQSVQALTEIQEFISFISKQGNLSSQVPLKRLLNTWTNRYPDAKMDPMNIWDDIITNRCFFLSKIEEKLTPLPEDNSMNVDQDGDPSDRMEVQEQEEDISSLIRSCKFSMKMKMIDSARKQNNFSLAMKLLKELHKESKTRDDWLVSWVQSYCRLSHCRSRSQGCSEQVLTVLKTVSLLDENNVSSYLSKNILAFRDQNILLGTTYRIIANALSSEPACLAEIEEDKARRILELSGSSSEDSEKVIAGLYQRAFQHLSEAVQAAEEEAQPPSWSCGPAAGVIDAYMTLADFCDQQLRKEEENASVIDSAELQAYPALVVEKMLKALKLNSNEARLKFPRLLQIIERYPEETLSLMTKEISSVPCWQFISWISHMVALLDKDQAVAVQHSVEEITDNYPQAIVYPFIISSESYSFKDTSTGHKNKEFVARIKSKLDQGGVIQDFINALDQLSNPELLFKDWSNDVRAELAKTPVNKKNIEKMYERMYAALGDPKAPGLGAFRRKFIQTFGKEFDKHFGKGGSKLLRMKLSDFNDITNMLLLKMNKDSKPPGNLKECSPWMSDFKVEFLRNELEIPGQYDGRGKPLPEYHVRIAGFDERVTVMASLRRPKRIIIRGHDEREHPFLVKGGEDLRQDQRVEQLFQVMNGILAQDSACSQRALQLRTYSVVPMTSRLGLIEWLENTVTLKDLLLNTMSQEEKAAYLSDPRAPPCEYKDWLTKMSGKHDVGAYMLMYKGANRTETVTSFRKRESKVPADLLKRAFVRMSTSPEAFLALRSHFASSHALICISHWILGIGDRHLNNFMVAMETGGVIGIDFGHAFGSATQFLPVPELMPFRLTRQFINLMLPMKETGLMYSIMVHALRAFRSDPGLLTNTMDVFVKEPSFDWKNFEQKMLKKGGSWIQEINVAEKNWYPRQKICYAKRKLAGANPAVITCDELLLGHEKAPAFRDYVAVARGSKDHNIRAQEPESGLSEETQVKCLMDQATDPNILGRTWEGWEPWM

DNA-PK kinase activity in 15-LOX-1 expressing whole cell extract lysates: 1.6 fold
B1: 15-lipoxygenase-1 (enzyme, human, UniProt P16050 1-662, looked up)
chain: MGLYRIRVSTGASLYAGSNNQVQLWLVGQHGEAALGKRLWPARGKETELKVEVPEYLGPLLFVKLRKRHLLKDDAWFCNWISVQGPGAGDEVRFPCYRWVEGNGVLSLPEGTGRTVGEDPQGLFQKHREEELEERRKLYRWGNWKDGLILNMAGAKLYDLPVDERFLEDKRVDFEVSLAKGLADLAIKDSLNVLTCWKDLDDFNRIFWCGQSKLAERVRDSWKEDALFGYQFLNGANPVVLRRSAHLPARLVFPPGMEELQAQLEKELEGGTLFEADFSLLDGIKANVILCSQQHLAAPLVMLKLQPDGKLLPMVIQLQLPRTGSPPPPLFLPTDPPMAWLLAKCWVRSSDFQLHELQSHLLRGHLMAEVIVVATMRCLPSIHPIFKLIIPHLRYTLEINVRARTGLVSDMGIFDQIMSTGGGGHVQLLKQAGAFLTYSSFCPPDDLADRGLLGVKSSFYAQDALRLWEIIYRYVEGIVSLHYKTDVAVKDDPELQTWCREITEIGLQGAQDRGFPVSLQARDQVCHFVTMCIFTCTGQHASVHLGQLDWYSWVPNAPCTMRLPPPTTKDATLETVMATLPNFHQASLQMSITWQLGRRQPVMVAVGQHEEEYFSGPEPKAVLKKFREELAALDKEIEIRNAKLDMPYEYLRPSVVENSVAI
